Experiment: yeast display, Sf9 membrane polyspecificity reagent, FACS + sequencing; frameworks hold sequencing errors
Outline: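 A nanobody's polyreactivity label depends on the gate it was sorted from. Yeast display cells were stained with 10% biotinylated, detergent-solubilized Sf9 membrane reagent for 1 hour at 4 °C, enriched on streptavidin microbeads and sorted by FACS. The low and high (top ~1%) gates were set on anti-HA fluorescence for expression and streptavidin fluorescence for reagent binding.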

Sequence: QVQLVESGGGLVQAGGSLRLSCAASGYTFPLYAMGWYRQAPGQERELVADINIGGASTYYADSVKGRFTISRDNAKNTVYLQMNSLKPEDTAVYYSAKEYYDGYFPTFDYDYWGQGTQVTVSS
- polyreactivity (PSR sort gate): low polyreactivity

Sequence: QVQLVESGGGLVQAGGSLRLSSAASGRIFGYNAMGWYRQAPGKERELVAVITYRGTSTYYADSVKGRFTISRDNAKNTVYLQMNSLKPEDTAVYYCAAVNGGYWRYYYWGQGTQVTVSS
- polyreactivity (PSR sort gate): high polyreactivity

Sequence: QVQLEETGGGLVQAGGSLRLSCAASGITFGDYAMGWYRQAPGKERELVAAISFTGASTYYADSVKWRFTISRDNAKNTVYLLMNSLKPDDTPVYYCAADPYVPYQDFLSGFDFWGQGTQVTVSW
- polyreactivity (PSR sort gate): low polyreactivity

Sequence: QVQLVESGGGLVQAGGSLRLSFAASGSTFVYNAMGWYRPAPGKERELVAAITVIGGRTYYADSVKGRFTISRDNAKNTVYLQMNSLKPEDTAVYYCNADATESIGYYDEYEYWGQGTQVTVSS
- polyreactivity (PSR sort gate): low polyreactivity

Sequence: QVQLVESGGGLDQAGGSLRLSCAASGFIFNNYAMGSYRQAPGKERELVAAITWSGGGTYYADSVKGRFTISRDNAKNTVYLQMNSLKPEDTAVYYCADYYPAYRDEYWGQGTQVTVSS
- polyreactivity (PSR sort gate): high polyreactivity

Sequence: QVQLLESGGGLVQAGGSLRLSSASSSFIFYSNDMGSYRQAPGKERELVAAISRRCGSTYYADSVKGRFTISRDNAKNTVFLQMNSLKPEDTAVYYCAARVGSGFDSWGQGTQVTVSS
- polyreactivity (PSR sort gate): high polyreactivity

Sequence: QVQLVDSGGGLVQAGGSLRLSCAASGSPFTTYAMGWYRQAPGTERELVAAISTNGGRTFYSDSVKGRFTISRDNAKNSVYLQMNSLKPEDTALYYCAAEYDLYAPGYYYWGEGTQVTVSS
- polyreactivity (PSR sort gate): low polyreactivity

Sequence: QVQLVESGGGLVQAGGSLRLSCAASGNTFPWYAMGWSRQAPGKERELVAAINSGGRTNYADSVKGRFTISRDNAKNTVYLQMNSLKQEDTAVYYCAAAFDWGLYCFDYWGQGTQVTVSS
- polyreactivity (PSR sort gate): high polyreactivity

Sequence: QVQLVESGGGLVQAGGSLRLSCAASGYIFVVNAMGWYRQAPGKERELVAAIDWGGGSTYADSVKGRFTISRDNAKNTVYLQMNSLKPEDTAVYYCAADLWPYPNDYWGQGTQVTVSS
- polyreactivity (PSR sort gate): low polyreactivity

Sequence: QVQLVESGGGLVQAGGSLRLSCAASGRTFRANVMGWYRQAPGKERELVAAISKSGGRTYYADSVKGRFTISRDNAKNTVYLQMNSLKPEDTAVYYCAADIPSYRGYGYDYWGQGTQVTVSS
- polyreactivity (PSR sort gate): high polyreactivity

Sequence: QVQLVESGGGLVQAGGSLRLSCAASGRTFKDYAMGWYRQAPGKERELVAAISWSGGDTYYADSVKGRFTISRDNAKNTVYLQMNSLKPEDTAVYYCNADPSGVFFYSLEFDYWGQGTQVTVSS
- polyreactivity (PSR sort gate): low polyreactivity

Sequence: QGQLVESGGGLVQAGGSLRLSCAASGSIFNTYAMGWYRQAPGKEREFVASISRSGGSTRYADSVKGRFTISRDNAKNTVYLQMNSLKPEDTEVYYSAARVPRGHVTYDSWGQGTKVTVSS
- polyreactivity (PSR sort gate): high polyreactivity

Sequence: QVQLVESGGGLVQAGGSLRLSCAASGITIVNYVMGWYRQAPGKERELVAAISIGGGTYYADSVKGRFTISRDNAKNTVYLQRNSLKPEDTAVYYCNATFGGLSFYIGVYVTGYDYWGQGTQVTVSS
- polyreactivity (PSR sort gate): low polyreactivity

Sequence: QVQLVESGGGLVQAGGSLRLSCAASGRILPYNVMGWYRQAPGKEWEFVAAITGSGGDTYYADSVKGRFTISRDTAKNTVYLQMNSLKPEDTAVYYCAAAPYIGGSFGQTPGSGYWGQGTQVTVSS
- polyreactivity (PSR sort gate): low polyreactivity

Sequence: QVQHVESGRGLVQAGGSLRLSCAAYGRIPYKAMGWYKQAPGKERELVAAISRSGTRTYYADSVKGRYTISRDNAKNTVYLQMISLKPQDTAVYYCAAPVSGYSSDYWGQGTQVTVSS
- polyreactivity (PSR sort gate): high polyreactivity

Sequence: QVQLVESGGGLVQAGGSLRLSCAASGSIFRRNAMGWYRQAPGKERELVAGIRGSGGSTYYADSVKGRFTISRDNAKNTVYLQMNSLKPEDTAVYYSAARRSYYHGSYDYWGQGTQVTVSS
- polyreactivity (PSR sort gate): high polyreactivity

Sequence: HVQLVESGGGLVQAGGSLRLSCAASGRSFRYNAMGWYRQAPGKERELVAAITRSGGSTDYADSVKGRFTISRDNAKNTVNLQMNSLKPEDTAVYYCAKLQNGQWSTSRVPGDYQYNYWGQGTQVTVSS
- polyreactivity (PSR sort gate): high polyreactivity

Reference: the nanobody polyreactivity screen of Harvey et al. (2022)
